# Laboratory results reported in patent publication US20140357844A1 (RINAT NEUROSCIENCE, published 2014).
# Values joined by “and” are separate entries in the source; they are usually repeats but may differ in a detail not shown here. Equal values may be shown once.
# T1: Trop-2 on Trop-2 expressing tumor cells (human, UniProt P09758 27-323)
# T1 sequence: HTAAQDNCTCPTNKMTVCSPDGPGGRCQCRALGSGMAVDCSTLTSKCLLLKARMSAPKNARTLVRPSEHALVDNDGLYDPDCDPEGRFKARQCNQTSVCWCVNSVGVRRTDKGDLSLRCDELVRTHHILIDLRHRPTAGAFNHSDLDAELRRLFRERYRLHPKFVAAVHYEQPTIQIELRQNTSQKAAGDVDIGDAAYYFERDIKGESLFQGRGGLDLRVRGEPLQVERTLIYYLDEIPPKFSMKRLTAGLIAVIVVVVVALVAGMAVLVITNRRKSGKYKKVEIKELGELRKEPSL
# Biological target: T1, Trop-2 on Trop-2 expressing tumor cells
# Test: cell-based or functional assay
Binder,"Ab-IC50, cell viability (CellTiter-Glo, 96 h), A431 (Trop-2+++)","Ab-IC50, cell viability (CellTiter-Glo, 96 h), Colo205 (Trop-2+)","Ab-IC50, cell viability (CellTiter-Glo, 96 h), BxPC3 (Trop-2++)","Ab-IC50, cell viability (CellTiter-Glo, 96 h), CAPAN-2 (Trop-2+/++)"
"6G11-TG1-vcMMAD (AcLys-vcMMAD conjugate) (antibody, V domains shown) VH: QVQLQQPGAELVRPGASVKLSCKASGYTFTSYWINWVKQRPGHGLEWIGNIYPSDSYSNYNQKFKDKATLTVDKSSSTAYMQVSSPTSEDSAVYYCTYGSSFDYWGQGTTVTVSS VL: DILLTQSPAILSVSPGERVSFSCRASQTIGTSIHWYQQRTNGSPRLLIKYASESISGIPSRFSGSGSGTDFTLSINSVESEDIADYYCQQSNSWPFTFGSGTKLEIK",0.03 µg/mL and 0.197 nM,0.379 µg/mL and 2.52 nM,–,–
"h7E6-L-TG1-vcMMAD (AcLys-vcMMAD conjugate) (antibody, V domains shown) VH: QVQLQESGPGLVKPSETLSLTCTVSGGSISSYGVHWIRQPPGKGLEWIGVIWTGGSTDYNSALMSRVTISVDTSKNQFSLKLSSVTAADTAVYYCARDGDYDRYTMDYWGQGTLVTVSS VL: DIVMTQSPDSLAVSLGERATINCRASKSVSTSLYSYMHWYQQKPGQPPKLLIYLASNLESGVPDRFSGSGSGTDFTLTISSLQAEDVAVYYCQHSRELPYTFGQGTKLEIK",0.02 µg/mL and 0.132 nM,0.082 µg/mL and 0.549 nM,0.035 µg/mL and 0.232 nM,2.03 µg/mL and 13.5 nM
"h7E6SVG-TG6-AcLys-vc-PABC-MMAD (antibody, human IgG1, V domains shown) VH: QVQLQESGPGLVKPSETLSLTCTVSGGSISSYGVHWIRQPPGKGLEWIGVIWTSGVTDYNSALMGRVTISVDTSKNQFSLKLSSVTAADTAVYYCARDGDYDRYTMDYWGQGTLVTVSS VL: DIVMTQSPDSLAVSLGERATINCRASKSVSTSGYSYMHWYQQKPGQPPKLLIYLASNLESGVPDRFSGSGSGTDFTLTISSLQAEDVAVYYCQHSRELPYTFGQGTKLEIK",0.011 µg/mL and 0.072 nM,0.209 µg/mL and 1.39 nM,0.032 µg/mL and 0.214 nM,–
"h7E6SVG-K222R-LCQ3-AcLys-vc-PABC-MMAD (antibody, human IgG1, V domains shown) VH: QVQLQESGPGLVKPSETLSLTCTVSGGSISSYGVHWIRQPPGKGLEWIGVIWTSGVTDYNSALMGRVTISVDTSKNQFSLKLSSVTAADTAVYYCARDGDYDRYTMDYWGQGTLVTVSS VL: DIVMTQSPDSLAVSLGERATINCRASKSVSTSGYSYMHWYQQKPGQPPKLLIYLASNLESGVPDRFSGSGSGTDFTLTISSLQAEDVAVYYCQHSRELPYTFGQGTKLEIK",0.01 µg/mL and 0.07 nM,2.68 µg/mL and 17.9 nM,0.014 µg/mL and 0.092 nM,–
"h7E6-N-TG1-vcMMAD (AcLys-vcMMAD conjugate) (antibody, V domains shown) VH: QVQLQESGPGLVKPSETLSLTCTVSGGSISSYGVHWIRQPPGKGLEWIGVIWTGGSTDYNSALMSRVTISVDTSKNQFSLKLSSVTAADTAVYYCARDGDYDRYTMDYWGQGTLVTVSS VL: DIVMTQSPDSLAVSLGERATINCRASKSVSTSNYSYMHWYQQKPGQPPKLLIYLASNLESGVPDRFSGSGSGTDFTLTISSLQAEDVAVYYCQHSRELPYTFGQGTKLEIK",0.024 µg/mL and 0.163 nM,0.1 µg/mL and 0.668 nM,–,2.02 µg/mL and 13.5 nM
"h7E6-WT-TG1-vcMMAD (AcLys-vcMMAD conjugate) (antibody, V domains shown) VH: QVQLQESGPGLVKPSETLSLTCTVSGGSISSYGVHWIRQPPGKGLEWIGVIWTGGSTDYNSALMSRVTISVDTSKNQFSLKLSSVTAADTAVYYCARDGDYDRYTMDYWGQGTLVTVSS VL: DIVMTQSPDSLAVSLGERATINCRASKSVSTSGYSYMHWYQQKPGQPPKLLIYLASNLESGVPDRFSGSGSGTDFTLTISSLQAEDVAVYYCQHSRELPYTFGQGTKLEIK",0.022 µg/mL and 0.144 nM,0.445 µg/mL and 2.97 nM,0.025 µg/mL and 0.169 nM,1.96 µg/mL and 13 nM
"h7E6-SVGL-TG1-vcMMAD (AcLys-vcMMAD conjugate) (antibody, V domains shown) VH: QVQLQESGPGLVKPSETLSLTCTVSGGSISSYGVHWIRQPPGKGLEWIGVIWTSGVTDYNSALMGRVTISVDTSKNQFSLKLSSVTAADTAVYYCARDGDYDRYTMDYWGQGTLVTVSS VL: DIVMTQSPDSLAVSLGERATINCRASKSVSTSLYSYMHWYQQKPGQPPKLLIYLASNLESGVPDRFSGSGSGTDFTLTISSLQAEDVAVYYCQHSRELPYTFGQGTKLEIK",0.018 µg/mL and 0.12 nM,0.052 µg/mL and 0.345 nM,–,2.44 µg/mL and 16.3 nM
"h7E6-SVGN-TG1-vcMMAD (AcLys-vcMMAD conjugate) (antibody, V domains shown) VH: QVQLQESGPGLVKPSETLSLTCTVSGGSISSYGVHWIRQPPGKGLEWIGVIWTSGVTDYNSALMGRVTISVDTSKNQFSLKLSSVTAADTAVYYCARDGDYDRYTMDYWGQGTLVTVSS VL: DIVMTQSPDSLAVSLGERATINCRASKSVSTSNYSYMHWYQQKPGQPPKLLIYLASNLESGVPDRFSGSGSGTDFTLTISSLQAEDVAVYYCQHSRELPYTFGQGTKLEIK",0.023 µg/mL and 0.153 nM,0.083 µg/mL and 0.552 nM,0.051 µg/mL and 0.337 nM,2.01 µg/mL and 13.4 nM
"h7E6-SVG-TG1-vcMMAD (Aminocapryl-vcMMAD conjugate) (antibody, V domains shown) VH: QVQLQESGPGLVKPSETLSLTCTVSGGSISSYGVHWIRQPPGKGLEWIGVIWTSGVTDYNSALMGRVTISVDTSKNQFSLKLSSVTAADTAVYYCARDGDYDRYTMDYWGQGTLVTVSS VL: DIVMTQSPDSLAVSLGERATINCRASKSVSTSGYSYMHWYQQKPGQPPKLLIYLASNLESGVPDRFSGSGSGTDFTLTISSLQAEDVAVYYCQHSRELPYTFGQGTKLEIK",–,–,0.034 µg/mL and 0.229 nM,–

# Biological target: T1, Trop-2 on Trop-2 expressing tumor cells
# Test: cell-based or functional assay
# Remark: another data set of the same source
Binder,"Ab IC50, cell viability (CellTiter-Glo, 96 h), A431 (Trop2 +++) [nM]","Ab IC50, cell viability (CellTiter-Glo, 96 h), BxPC3 (Trop2 ++) [nM]","Ab IC50, cell viability (CellTiter-Glo, 96 h), Calu-3 (Trop2 ++) [nM]","Ab IC50, cell viability (CellTiter-Glo, 96 h), Colo205 (Trop2 +) [nM]","Ab IC50, cell viability (CellTiter-Glo, 96 h), MDA-MB-468 (Trop2 ++) [nM]","Ab IC50, cell viability (CellTiter-Glo, 96 h), NCI-H292 (Trop2 ++) [nM]","Ab IC50, cell viability (CellTiter-Glo, 96 h), NCI-H1650 (Trop2 ++) [nM]","Ab IC50, cell viability (CellTiter-Glo, 96 h), OVCAR3 (Trop2 +++) [nM]","Ab IC50, cell viability (CellTiter-Glo, 96 h), SKBR3 (Trop2 +/++) [nM]"
"h7E6SVG-N297Q/K222R-PEG6MMAD (antibody, V domains shown, N297Q/K222R mutations in the CH2/Hinge domains of heavy chain; conjugated with PEG6-MMAD) VH: QVQLQESGPGLVKPSETLSLTCTVSGGSISSYGVHWIRQPPGKGLEWIGVIWTSGVTDYNSALMGRVTISVDTSKNQFSLKLSSVTAADTAVYYCARDGDYDRYTMDYWGQGTLVTVSS VL: DIVMTQSPDSLAVSLGERATINCRASKSVSTSGYSYMHWYQQKPGQPPKLLIYLASNLESGVPDRFSGSGSGTDFTLTISSLQAEDVAVYYCQHSRELPYTFGQGTKLEIK",0.07,0.03,0.5,21.1,0.19,0.03,0.38,0.98,0.08
"h7E6SVG-TG6-vc0101 (antibody, human IgG1, V domains shown, AcLys-vc-PABC-0101 on tag TG6 (LLQGA, SEQ ID NO: 79) at the C-terminus of the heavy chain) VH: QVQLQESGPGLVKPSETLSLTCTVSGGSISSYGVHWIRQPPGKGLEWIGVIWTSGVTDYNSALMGRVTISVDTSKNQFSLKLSSVTAADTAVYYCARDGDYDRYTMDYWGQGTLVTVSS VL: DIVMTQSPDSLAVSLGERATINCRASKSVSTSGYSYMHWYQQKPGQPPKLLIYLASNLESGVPDRFSGSGSGTDFTLTISSLQAEDVAVYYCQHSRELPYTFGQGTKLEIK",0.12,0.32,0.53,32.9,0.77,0.63,1.92,0.56,0.42
"h7E6SVG-LCQ03/K222R-vc0101 (antibody, human IgG1, V domains shown, AcLys-vc-PABC-0101 on tag LCQ03 (SEQ ID NO: 78) at the C-terminus of the light chain; K222R in the heavy chain constant region) VH: QVQLQESGPGLVKPSETLSLTCTVSGGSISSYGVHWIRQPPGKGLEWIGVIWTSGVTDYNSALMGRVTISVDTSKNQFSLKLSSVTAADTAVYYCARDGDYDRYTMDYWGQGTLVTVSS VL: DIVMTQSPDSLAVSLGERATINCRASKSVSTSGYSYMHWYQQKPGQPPKLLIYLASNLESGVPDRFSGSGSGTDFTLTISSLQAEDVAVYYCQHSRELPYTFGQGTKLEIK",0.03,0.13,–,174,–,–,–,–,–
"h7E6SVG-LCQ04/K222R-vc0101 (antibody, human IgG1, V domains shown, AcLys-vc-PABC-0101 on tag LCQ04 (SEQ ID NO: 79 as printed) at the C-terminus of the light chain; K222R in the heavy chain constant region) VH: QVQLQESGPGLVKPSETLSLTCTVSGGSISSYGVHWIRQPPGKGLEWIGVIWTSGVTDYNSALMGRVTISVDTSKNQFSLKLSSVTAADTAVYYCARDGDYDRYTMDYWGQGTLVTVSS VL: DIVMTQSPDSLAVSLGERATINCRASKSVSTSGYSYMHWYQQKPGQPPKLLIYLASNLESGVPDRFSGSGSGTDFTLTISSLQAEDVAVYYCQHSRELPYTFGQGTKLEIK",–,0.11,1.51,–,–,1.84,–,–,–
